Laboratory results reported in US5866124.

Target: murine anti-HMW-MAA monoclonal antibody 763.74
Assay: ELISA on plates coated with MAb 763.74, culture supernatant, detected with alkaline phosphatase-conjugated anti-human γ

B1: chimeric antiidiotypic monoclonal antibody MK2-CHγ1 (antibody, V domains shown)
VH: LQESGGGLVQPGGSRKLSCAASGFTFSSFGMHWVRQAPEKGLEWVAYISSDSSNIYYADTVKGRFTISRDNPKNTLFLQMTSLRSEDTAMYYCARSNYVGYHVRWYFDVWGQGTTVT
VL: QLTQSPASLAVSLGQRVTISCRASESVEYYGSSLMQWYQQKPGQPPKLLIYAASNVESGVPARFSGSGSGTDFSLNIHPVEEDDIAMYFCQQSRKIPYTFGGGTKLEI
  A405: 0.78 A405
